Test results reported in article PMC5727500, “Paper-based MoS2 nanosheet-mediated FRET aptasensor for rapid malaria diagnosis”.

Molecular target: Plasmodium lactate dehydrogenase (pLDH) (Plasmodium falciparum, UniProt Q27743 1-316)
Test: FRET fluorescence recovery from MoS2 nanosheets on printer paper; 1 uM pLDH; 100 nM aptamer, 25 ug/mL MoS2 dried on printer paper; no recovery on lens, coffee filter, Whatman or Advantec paper; Aptamer buffer 20 mM Tris-HCl pH 8, 50 mM NaCl, 5 mM KCl, 5 mM MgCl2; pLDH in water, other proteins in 1x PBS; readings over 30 min; temperature not stated
Conditions: protein: recombinant; chain copies: 4; label: 3' FAM

Sequence of Plasmodium lactate dehydrogenase (pLDH) (Q27743 whole entry): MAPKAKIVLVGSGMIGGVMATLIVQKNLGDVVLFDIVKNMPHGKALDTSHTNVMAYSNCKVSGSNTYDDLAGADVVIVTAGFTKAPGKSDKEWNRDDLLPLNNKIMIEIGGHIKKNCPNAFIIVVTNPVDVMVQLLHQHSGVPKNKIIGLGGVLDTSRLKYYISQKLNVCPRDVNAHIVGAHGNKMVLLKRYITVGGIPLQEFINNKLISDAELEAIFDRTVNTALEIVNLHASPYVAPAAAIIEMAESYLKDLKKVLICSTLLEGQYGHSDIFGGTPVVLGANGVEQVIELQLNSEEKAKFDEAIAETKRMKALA

B1: pLDH aptamer (ssDNA)
DNA: GTTCGATTGGATTGTGCCGGAAGTGCTGGCTCGAAC
  binding result: binds
